According to patent US20210147525A1 (University of California, published 2021):

Target: T1, Biotin-HSA (human, UniProt P02768, biotinylated (sites and number not given))
T1 construct: biotinylated, without the compound; not further described; also called biotinylated-HSA; biotinylated human albumin
Assay: binding of biotinylated HSA without compound to transfected HEK293 cells, detected with avidin-alkaline phosphatase

T1 sequence (P02768 25-609 limits assumed): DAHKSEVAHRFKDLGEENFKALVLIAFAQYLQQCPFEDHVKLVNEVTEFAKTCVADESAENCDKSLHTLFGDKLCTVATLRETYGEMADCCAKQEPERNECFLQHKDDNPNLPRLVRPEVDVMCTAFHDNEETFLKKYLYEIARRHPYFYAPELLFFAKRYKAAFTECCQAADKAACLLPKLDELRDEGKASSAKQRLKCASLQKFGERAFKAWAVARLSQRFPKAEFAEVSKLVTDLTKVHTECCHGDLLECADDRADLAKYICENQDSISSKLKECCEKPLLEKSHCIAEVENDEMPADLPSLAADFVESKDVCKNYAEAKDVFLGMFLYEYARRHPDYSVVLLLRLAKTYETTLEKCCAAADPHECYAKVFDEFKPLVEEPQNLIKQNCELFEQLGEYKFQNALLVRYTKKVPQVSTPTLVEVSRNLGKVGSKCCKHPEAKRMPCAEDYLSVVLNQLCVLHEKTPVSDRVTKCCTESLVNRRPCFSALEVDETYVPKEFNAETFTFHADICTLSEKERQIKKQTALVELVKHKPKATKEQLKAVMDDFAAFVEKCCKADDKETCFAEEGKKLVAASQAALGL

B1: R-PLXDC1 (full length human PLXDC1 with an epitope tag at the N-terminus, on transfected cells) (receptor, not shown: small tags and cut ends)
chain: LSPQPGAGHDEGPGSGWAAKGTVRGWNRRARESPGHVSEPDRTQLSQDLGGGTLAMDTLPDNRTRVVEDNHSYYVSRLYGPSEPHSRELWVDVAEANRSQVKIHTILSNTHRQASRVVLSFDFPFYGHPLRQITIATGGFIFMGDVIHRMLTATQYVAPLMANFNPGYSDNSTVVYFDNGTVFVVQWDHVYLQGWEDKGSFTFQAALHHDGRIVFAYKEIPMSVPEISSSQHPVKTGLSDAFMILNPSPDVPESRRRSIFEYHRIELDPSKVTSMSAVEFTPLPTCLQHRSCDACMSSDLTFNCSWCHVLQRCSSGFDRYRQEWMDYGCAQEAEGRMCEDFQDEDHDSASPDTSFSPYDGDLTTTSSSLFIDSLTTEDDTKLNPYAGGDGLQNNLSPKTKGTPVHLGTIVGIVLAVLLVAAIILAGIYINGHPTSNAALFFIERRPHHWPAMKFRSHPDHSTYAEVEPSGHEKEGFMEAEQC
notes: also called TEM7
Question: Does B1 bind?
Answer: Result: no binding
